Patent publication US10328100B2 (Amorphical Ltd., priority 2007, dated 2019)
Several values for one entry are separate records, joined by “and”; a condition that tells them apart may be missing. Equal values may be shown once. Entries after “also recorded” stand apart in the source; their conditions may differ.

Key:
GAP10 transcripts = assay: in vivo silencing of GAP10 transcripts during premolt; set-up: species or system C. quadricarinatus
Experimental: In order to examine the effect of in vivo silencing of GAP10 transcripts during premolt, intermolt males (MMI=0), each weighing 5-10 g were divided to four groups. Ten animals were injected daily with both ecdysone, and dsRNA of GAP 10; eight were injected with ecdysone; six were injected with both ecdysone and dsRNA of CqVg; and four were injected with ecdysone carrier only, i.e., 10% ethanol in Diethyl pyrocarbonate-treated doubly distilled water. Injections were given into the sinus of the first abdominal segment. For each individual crayfish the experiment was terminated at MMI=0.1, at which time the animal was anesthetized and its gastroliths were dissected out. Premolt duration was defined as the number of days until termination. […] Another group was injected with ecdysone and CqVg dsRNA (a hepatopancreatic-specific gene found mostly in reproductive females) and served as a control for sequence-specific silencing.
For analysis of the gastrolith surface roughness, optical phase interference microscopy (OPIM) analysis was used, providing topographic images of representative surface samples from each group (FIG. 37B).

C. quadricarinatus = conditions: cited from earlier work
GAP65 transcript = assay: GAP65 silencing by in vivo injections of GAP65 dsRNA (RNAi) to intermolt crayfish; set-up: species or system Cherax quadricarinatus
Experimental: Relative GAP65 transcript levels in the gastrolith epithelial disc following silencing using GAP65 dsRNA were measured using realtime RT-PCR and presented in FIG. 4. GAP65 levels were evaluated in crayfish injected with ecdysone and GAP65 dsRNA, ecdysone and dsRNA carrier, ecdysone and C. quadricarinatus vitellogenin (CqVg) dsRNA, and a control injected with both carriers. CqVg an hepatopancreatic specific gene found mostly in reproductive females, served as a control for sequence specific silencing. […] In the crayfish injected with ecdysone and CqVg dsRNA, GAP65 transcript levels were similar to the levels detected in the ecdysone and dsRNA carrier injected group. In the control carriers injected crayfish GAP65 transcript levels were higher than the levels found in the ecdysone and GAP65 dsRNA injected crayfish but lower than the levels detected in both the ecdysone and dsRNA injected, and the ecdysone CqVg dsRNA injected crayfish.
In order to test the role of GAP65 in gastrolith formation, an RNAi (RNA interference) technique using in vivo injections of GAP65 dsRNA to intermolt crayfish was applied. The initiation of gastrolith formation was achieved by injection of ecdysone. In FIG. 5 gastrolith of crayfish injected with either ecdysone+GAP65 dsRNA, ecdysone+dsRNA carrier, or with carriers of both ecdysone and dsRNA can be seen. FIG. 5A is a lateral view of a representative gastrolith dissected from each treatment group. […] In the control carriers injected the gastrolith appeared undeveloped or in an initial growth stage. […] The control carrier gastrolith was too small to be detected by the X-ray imaging.
Scanning electron microscope (SEM) images of gastroliths dissected from crayfish injected with GAP65 dsRNA and ecdysone, and from crayfish injected only with ecdysone and dsRNA carrier, are presented in FIG. 6. FIG. 6A-B depict images of a cross section through the central part of the gastrolith. […] The dense mineral layered structure observed in the gastrolith of ecdysone and carrier injected is replaced with a loosely packed columnar mineralization structure, which resembles hollow straws, in the gastrolith of ecdysone and GAP65 dsRNA injected crayfish.

[1] = calcium binding on nitrocellulose membrane after SDS-PAGE; conditions: gastrolith protein fraction transferred to nitrocellulose membrane
Experimental: FIGS. 33A-B. relate to the identification of GAP10 and characterization of its phosphorylation and calcium-binding properties; FIG. 33A, left: SDS-PAGE stained with Coomassie blue; middle: Staining of the same gel for phosphoproteins; right: transfer of the same fraction to a nitrocellulose membrane and incubation with […]. Spots identified as GAP10 by LC-MS are circled. Abbreviations: PC (positive control).
(§1) Proteins that were both phosphorylated and calcium-binding were prepared for LC-MS. Two of them, migrating at apparent molecular masses of ˜9 and ˜11 kDa (circled), were identified as GAP10 (FIG. 33B), and their pIs were calculated as 5 and 5.5, respectively. Since GAP10 has a mildly acidic pI, it is negatively charged at the pH of the gastrolith pouch, which is approximately 8.7.

[2] = isoelectric focusing then SDS-PAGE of gastrolith protein fraction; assay type: physicochemical; conditions: two spots of ~9 and ~11 kDa identified as GAP10, respectively
Experimental: as §1

[3] = in vitro calcium carbonate precipitation assay testing the stabilization of ACC; assay type: physicochemical; conditions: for form of calcium carbonate precipitated in the presence of the additive: in vitro precipitation from calcium salt and carbonate
Source text: Analysis of the product may comprise testing the resultant CaCO3 by various methods (as XRD, electron diffraction, SEM) to verify its amorphous nature. […] The phosphate peak at 950 cm^−1, is proportional to the phosphate content in the sample. Yet, the ratio between 1080 to 950 cm^−1 is proportional, but not directly indicative of the CO3^2−/[…] ratio.
FIG. 7 presents precipitation results of calcium carbonate in the presence of GAP65 and in the presence of other protein (trypsin). SEM images in FIG. 7A indicate the distinct polymorph of calcium carbonate in each treatment.
(§2) 100 μl of 1M CaCl2 was added to 10 ml double distilled water (final concentration: 10 mM). 80 μl from the protein extraction solution (1.2 μg/μl) were added (final concentration ˜10 μg/ml), 100 μl of 1M Na2CO3 (final concentration: 10 mM) was added following an intensive shaking. The vial was centrifuged for 5 min at 4000 rpm, the precipitate was smeared over a glass slide and instantly dried with air flow. […] The observations were confirmed by Raman spectroscopy.
100 μl of 1M CaCl2 were added to 10 ml double-distilled water (DDW), attaining the final concentration of […]. 200 μl of P-serine (P-Ser) solution (100 mM) were added to the solution, attaining 2 mM of P-Ser. 100 μl of 1M Na2CO3 (final concentration: 10 mM) were added following an intensive shaking. The vial was centrifuged for 5 min at 4000 rpm at room temperature. The upper solution was removed and the precipitation was smeared over a glass slide and instantly dried by air flow.

[4] = stability of ACC held at room temperature, tested by Raman spectroscopy; assay type: physicochemical
Experimental: The precipitated calcium carbonate was checked over long periods for the amorphous/crystalline state.
as §2

C[C@H]([C@H](O)CCC(C)(C)O)[C@H]1CC[C@@]2(O)C3=CC(=O)[C@@H]4C[C@@H](O)[C@@H](O)C[C@]4(C)[C@H]3CC[C@]12C [ecdysone]
Swedish height (SH) of gastrolith surface (GAP10 transcripts; OPIM topographic images): 4.4±0.5 μm
average premolt duration (number of days until reaching MMI=0.1) (GAP10 transcripts; repeated daily injections to intermolt males, dsRNA given together with ecdysone): 10.1 days
gastrolith surface appearance (GAP10 transcripts; top view of dissected gastroliths): fairly smooth
typical induced premolt duration until ecdysis (C. quadricarinatus; known for ecdysone administration): 10 to 14 days
peak observed molt mineralization index (MMI) (C. quadricarinatus; reached 1-2 days before the molt event): 0.125-0.145
gastrolith spherule size (GAP65 transcript; SEM x15000): 40-60 nm
gastrolith structure by SEM (GAP65 transcript; cross section through central part of gastrolith): normal gastrolith appearance
gastrolith morphology (GAP65 transcript; dissected gastrolith, lateral view, gastrolith formation initiated by ecdysone): normal with no deformities
gastrolith mineral density by X-ray imaging (GAP65 transcript; dorsal X-ray view prior to dissection): normal with no effects on mineral densities

B1: GAP10: Gastrolith protein of Cherax quadricarinatus, calculated 10 kDa, SEQ ID NO. 24 (fragment SEQ ID NO. 25) (protein, listed as Cherax quadricarinatus)
chain: MKIFILLVVIGVVSAQLGAGQVGGAAPAQGAGGAAGVGGPGAAPVNPYGPKVYGSGLNNPFAFPHNTWEVSRAAAVAATNPNLYVRVESDGGWEFTNRFGEKVDVYNSFGQELD
calcium binding [1]: calcium-binding ability
pI [2]: 5 and 5.5

B2: GAP65: Negatively charged glycoprotein of about 65 kDa from Cherax quadricarinatus gastrolith, SEQ ID NO. 1; used as enriched DEAE fraction 17 (protein, listed as Cherax quadricarinatus)
chain: MIRRVTTPLLALLLAGWVVAQTTDMDPEQYCARRDDEYFRKDFGDPAEFASDYRANCGVYYRCVPAPAGKRSISASQCQSELFFDVQQQICERKSKVTNCEQIDKEHPPQPFWPLREGEESQCKSGEIMCGSGECLPQHRFCDENSDCADGSDENICTPDKDPNRADVCEPRTCLWSQGCFCSVDGTRIPGDLTVDQTPQMITITFTGAINERNFRIFQDVFKDTVKHKGNDCTPKGTFFISHGFSNYSAIQELNRVGHEIAVSSITNNDNPDYWSKLSALDYEAEMDGARLIIEKFANITANEVLGIRVPKQRVGGNRQFRMMVDWGFLYDSSISAPMGRLPLWPYTLMHRMPHKCLGNDQNCPSQNFTVWEMVINEMDRRDDPQFDERLTGCHFVDQCANIQSPEQFRAFLDNNLARHYRTNRAPLGLHFTSGYFETRRDFLREFVKWVRETALSGDYFFVTMQQVINWMEAPTELTAINNFQEWKGKCEVKGQPYCSLPNPCPKKVPRIFPNEEEMFLYTCMECPNTYPWLGDPHGNGFLDIPDF
ACC share of the total CaCO3 ([3]; 10 mM CaCl2, 10 mM Na2CO3, ~10 μg/ml protein, estimated): at least 50%
Raman spectroscopy (RS) of the CaCO3 precipitate ([3]; after precipitation and drying, broad peak about 1080 cm^-1 indicates ACC): distinct spectra of ACC
form of calcium carbonate precipitated in the presence of the additive ([3]; SEM): amorphous CaCO3; also recorded: amorphous form (ACC)
CaCO3 deposits characterized by polarized microscope ([3]; precipitation in the presence of GAP65, confirmed by Raman spectroscopy): mixture of calcite, vaterite, and ACC
Raman spectra (around the 1085 peak) compared with calcite ([4]; 6.5-month old ACC, room temperature): mixture seemingly comprising ACC and vaterite
nanosphere size of ACC ([4]; SEM 40 days after the precipitation): 50-500 nm
time the ACC remained stable (amorphous state kept) ([4]; room temperature, Raman spectra): at least 1 months

B3: trypsin: Other (inert) protein used in equivalent amount as control in the precipitation assay (protein, UniProt P00760 24-246, looked up)
Serine protease 1: IVGGYTCGANTVPYQVSLNSGYHFCGGSLINSQWVVSAAHCYKSGIQVRLGEDNINVVEGNEQFISASKSIVHPSYNSNTLNNDIMLIKLKSAASLNSRVASISLPTSCASAGTQCLISGWGNTKSSGTSYPDVLKCLKAPILSDSSCKSAYPGQITSNMFCAGYLEGGKDSCQGDSGGPVVCSGKLQGIVSWGSGCAQKNKPGVYTKVCNYVSWIKQTIASN
form of calcium carbonate precipitated in the presence of the additive ([3]; SEM): rapid crystallization
size of calcium carbonate crystals formed ([3]; same conditions, control protein, SEM): 10 μm
